{"source": "patent US7045617", "proteins": {"B1": {"name": "insulin receptor protein tyrosine kinase (IRK), activated recombinant (protein)", "chain": "VFPCSVYVPDEWEVSREKITLLRELGQGSFGMVYEGNARDIIKGEAETRVAVKTVNESASLRERIEFLNEASVMKGFTCHHVVRLLGVVSKGQPTLVVMELMAHGDLKSYLRSLRPEAENNPGRPPPTLQEMIQMAAEIADGMAYLNAKKFVHRDLAARNCMVAHDFTVKIGDFGMTRDIYETDYYRKGGKGLLPVRWMAPESLKDGVFTTSSDMWSFGVVLWEITSLAEQPYQGLSNEQVLKFVMDGGYLDQPDNCPERVTDLMRMCWQFNPKMRPTFLEIVNLLKDDLHPSFPEVSFFHSEENK"}}, "target": "T1, IRS727 peptide substrate", "T1 chain": "KKKLPATGDYMNMSPVGD"}
{"protein": "B1", "values": [{"measurement": "Km app of the peptide substrate", "value": "Km app (IRS727)=280 µM"}]}
